Data as given in publication doi:10.1101/2024.11.07.622398 (bioRxiv, 2024).
Values belong to the binder of their own block, whether it stands above or below them.

Key:
[1] = target: T1, human UBA7 (human, UniProt P41226 1-1012); test: disulfide complex formation on non-reducing SDS-PAGE
T1 sequence: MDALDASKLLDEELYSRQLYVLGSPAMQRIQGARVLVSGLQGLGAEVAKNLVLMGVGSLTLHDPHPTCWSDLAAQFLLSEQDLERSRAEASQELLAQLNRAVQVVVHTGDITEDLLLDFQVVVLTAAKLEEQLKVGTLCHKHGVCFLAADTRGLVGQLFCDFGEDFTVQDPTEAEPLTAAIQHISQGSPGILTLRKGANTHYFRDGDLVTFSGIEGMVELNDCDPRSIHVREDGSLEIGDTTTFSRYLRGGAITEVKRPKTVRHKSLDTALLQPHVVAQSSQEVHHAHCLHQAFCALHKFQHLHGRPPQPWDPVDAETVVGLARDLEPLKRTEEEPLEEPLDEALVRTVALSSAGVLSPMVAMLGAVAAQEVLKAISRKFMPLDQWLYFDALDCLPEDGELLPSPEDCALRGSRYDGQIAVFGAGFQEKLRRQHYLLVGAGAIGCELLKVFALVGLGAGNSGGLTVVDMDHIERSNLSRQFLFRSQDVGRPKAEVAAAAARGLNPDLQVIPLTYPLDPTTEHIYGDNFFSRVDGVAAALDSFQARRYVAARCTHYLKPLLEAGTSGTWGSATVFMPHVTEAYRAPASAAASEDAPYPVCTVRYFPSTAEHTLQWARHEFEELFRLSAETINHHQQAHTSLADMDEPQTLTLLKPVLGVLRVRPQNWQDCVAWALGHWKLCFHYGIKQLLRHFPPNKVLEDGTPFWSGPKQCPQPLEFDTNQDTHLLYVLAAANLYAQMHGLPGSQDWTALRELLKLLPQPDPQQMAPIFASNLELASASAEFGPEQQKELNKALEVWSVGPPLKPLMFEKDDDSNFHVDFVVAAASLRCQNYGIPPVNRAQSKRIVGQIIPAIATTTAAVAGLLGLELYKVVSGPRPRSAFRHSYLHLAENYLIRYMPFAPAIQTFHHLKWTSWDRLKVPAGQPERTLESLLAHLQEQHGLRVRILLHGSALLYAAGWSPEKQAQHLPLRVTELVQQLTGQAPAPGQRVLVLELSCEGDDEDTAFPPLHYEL

[2] = target: T2, mouse UBA7 (mouse, UniProt Q9DBK7 1-977); test: as above
T2 sequence (looked up): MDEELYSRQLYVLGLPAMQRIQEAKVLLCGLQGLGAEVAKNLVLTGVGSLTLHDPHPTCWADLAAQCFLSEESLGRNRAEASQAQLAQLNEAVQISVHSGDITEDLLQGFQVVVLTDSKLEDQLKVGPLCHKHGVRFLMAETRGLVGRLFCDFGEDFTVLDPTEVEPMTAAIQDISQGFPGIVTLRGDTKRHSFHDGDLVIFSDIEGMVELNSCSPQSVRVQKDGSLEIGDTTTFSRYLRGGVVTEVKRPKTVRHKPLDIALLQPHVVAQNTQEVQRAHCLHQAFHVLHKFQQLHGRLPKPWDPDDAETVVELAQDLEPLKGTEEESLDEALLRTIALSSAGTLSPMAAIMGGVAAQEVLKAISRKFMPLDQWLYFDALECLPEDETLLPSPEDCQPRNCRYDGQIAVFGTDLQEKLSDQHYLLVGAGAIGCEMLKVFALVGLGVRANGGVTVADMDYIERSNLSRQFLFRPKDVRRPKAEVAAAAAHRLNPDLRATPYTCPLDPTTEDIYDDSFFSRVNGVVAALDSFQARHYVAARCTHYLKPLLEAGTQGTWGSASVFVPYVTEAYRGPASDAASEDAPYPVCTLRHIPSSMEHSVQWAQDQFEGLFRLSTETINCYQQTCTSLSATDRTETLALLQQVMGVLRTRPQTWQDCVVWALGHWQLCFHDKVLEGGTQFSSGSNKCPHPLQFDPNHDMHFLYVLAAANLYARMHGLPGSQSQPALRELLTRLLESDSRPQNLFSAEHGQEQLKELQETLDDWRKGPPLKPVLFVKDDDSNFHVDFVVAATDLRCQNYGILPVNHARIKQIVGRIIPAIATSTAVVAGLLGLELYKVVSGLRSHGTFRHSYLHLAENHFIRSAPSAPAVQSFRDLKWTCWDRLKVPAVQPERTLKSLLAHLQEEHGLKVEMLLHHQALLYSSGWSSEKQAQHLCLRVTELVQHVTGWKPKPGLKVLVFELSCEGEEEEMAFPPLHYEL

binding result [1]: binds
B1: human UBE2L6 (enzyme)
chain: not shown

binding result [2]: binds
B2: mouse UBE2L6 (enzyme, UniProt Q9QZU9 1-153, looked up)
chain: MMASKRVAKELESLSKELPPYLRQLSSDDANVLVWHMLLLPDQLPYGLKAFQVRIDFPREYPFKPPTLRFTTKIYHPNVREDGLVCLPLISNENWKPYTKPYQVLEALNVLVSKPNLEEPVRLELADLLTQNPEMFRKKAEEFTLKFGVDRPS
